# Literature values in article PMC12023029.
# Target: His50 (UniProt position 50, KEGVVHGVATV)
# Assay: NMR (per title of cited reference 59)
# Conditions: free monomer, disordered
substance,measurement,setting,value
alpha-synuclein (aSyn) (Homo sapiens (inferred; the article does not name the species and discusses Parkinson's disease patients)),pKa,"150 mM salt, high salt",6.5
same,pKa,"low salt, article gives '4' mM as the lower end of the salt change",6.8
